In patent US20090068195A1:

What was measured:
[1] = target: non-human primate (cynomolgus monkey) IL-13 (cynomolgus monkey); assay: cell-based or functional assay
[2] = target: native human IL-13 (human) (UniProt P35225); assay: cell-based or functional assay
Chain of native human IL-13 (human) (P35225 other isoform, or with tags, fused parts or gaps limits assumed): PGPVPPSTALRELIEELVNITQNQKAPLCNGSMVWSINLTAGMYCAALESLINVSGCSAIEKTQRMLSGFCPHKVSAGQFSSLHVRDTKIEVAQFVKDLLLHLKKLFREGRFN

Chain of non-human primate (cynomolgus monkey) IL-13 (cynomolgus monkey) (Q5I6E4 other isoform, or with tags, fused parts or gaps limits assumed): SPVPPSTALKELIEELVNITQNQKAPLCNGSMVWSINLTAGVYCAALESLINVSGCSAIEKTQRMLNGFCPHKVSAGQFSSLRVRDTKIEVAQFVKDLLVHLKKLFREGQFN

CD23 expression, IC50 [1]: 0.308 nM | STAT6 phosphorylation, IC50 [2]: 0.554 nM
B1: antibody with the murine heavy chain of MJ2-7 and a humanized light chain (antibody, part only; not given: humanized light chain, V domains shown, part only)
VH: EVQLQQSGAELVKPGASVKLSCTGSGFNIKDTYIHWVKQRPEQGLEWIGRIDPANDNIKYDPKFQGKATITADTSSNTAYLQLNSLTSEDTAVYYCARSEENWYDFFDYWGQGTTLTVSS
